B1: Guanyl-specific ribonuclease Sa, P05798 (parent)
chain: DVSGTVCLSALPPEATDTLNLIASDGPFPYSQDGVVFQNRESVLPTQSYGYYHEYTVITPGARTRGTRRIITGEATQEDYYTGDHYATFSLIDQTC

Variants of: B1
Details: Kitasatospora aureofaciens, 25 °C, Urea, CD, structure 1RGG, whole UniProt chain shown

In the case of D1K D17K E41K D25K E74K D79K, the “ddG of mutation (higher = less stable)” value (pH 3, Glycine 30 mM) is reported as -0.2 kcal/mol, the denaturant m value (pH 3, Glycine 30 mM) is reported as 2.25 kcal/mol/M and the “denaturant midpoint (higher = more stable)” value (shortened to “denaturant midpoint”) (pH 3, Glycine 30 mM) is reported as 1.2 M. For the same variant, the unfolding free energy (pH 3, Glycine 30 mM) was 2.7 kcal/mol, the “ddG of mutation (higher = less stable)” value (pH 7, MOPS 30 mM) was -0.7 kcal/mol and the denaturant m value (pH 7, MOPS 30 mM) was 1.03 kcal/mol/M. For the same variant, the “denaturant midpoint” value (pH 7, MOPS 30 mM) was 6.9 M and the unfolding free energy (pH 7, MOPS 30 mM) was 7.1 kcal/mol.

For D1K D17K E41K D25K E74K, the “ddG of mutation (higher = less stable)” value (pH 3, Glycine 30 mM) was -0.9 kcal/mol, the denaturant m value (pH 3, Glycine 30 mM) was 1.92 kcal/mol/M and the “denaturant midpoint” value (pH 3, Glycine 30 mM) was 1.8 M. The unfolding free energy (pH 3, Glycine 30 mM) was 3.5 kcal/mol, the “ddG of mutation (higher = less stable)” value (pH 7, MOPS 30 mM) was 0.7 kcal/mol and the denaturant m value (pH 7, MOPS 30 mM) was 1.07 kcal/mol/M. The “denaturant midpoint” value (pH 7, MOPS 30 mM) was 5.3 M and the unfolding free energy (pH 7, MOPS 30 mM) was 5.7 kcal/mol.

With R40E R63E the “ddG of mutation (higher = less stable)” value (pH 3, Glycine 30 mM) was -1.1 kcal/mol, the denaturant m value (pH 3, Glycine 30 mM) was 1.66 kcal/mol/M and the “denaturant midpoint” value (pH 3, Glycine 30 mM) was 2.2 M. It also gave an unfolding free energy (pH 3, Glycine 30 mM) of 3.7 kcal/mol.

In the case of D1K D17K E41K D25K E74K D79K S31K, the “ddG of mutation (higher = less stable)” value (pH 3, Glycine 30 mM) is reported as 0 kcal/mol, the denaturant m value (pH 3, Glycine 30 mM) is reported as 2.37 kcal/mol/M and the “denaturant midpoint” value (pH 3, Glycine 30 mM) is reported as 1.1 M. The unfolding free energy (pH 3, Glycine 30 mM) was 2.6 kcal/mol, the “ddG of mutation (higher = less stable)” value (pH 7, MOPS 30 mM) was -0.2 kcal/mol and the denaturant m value (pH 7, MOPS 30 mM) was 1.15 kcal/mol/M. For the same variant, the “denaturant midpoint” value (pH 7, MOPS 30 mM) was 5.7 M and the unfolding free energy (pH 7, MOPS 30 mM) was 6.6 kcal/mol.

For R40E, the “ddG of mutation (higher = less stable)” value (pH 3, Glycine 30 mM) was -0.3 kcal/mol, the denaturant m value (pH 3, Glycine 30 mM) was 1.52 kcal/mol/M and the “denaturant midpoint” value (pH 3, Glycine 30 mM) was 1.9 M. It also gave an unfolding free energy (pH 3, Glycine 30 mM) of 2.9 kcal/mol.

With R40E R63E R65A R68A R69A the “ddG of mutation (higher = less stable)” value (pH 3, Glycine 30 mM) was -2.7 kcal/mol, the denaturant m value (pH 3, Glycine 30 mM) was 1.17 kcal/mol/M and the “denaturant midpoint” value (pH 3, Glycine 30 mM) was 4.5 M. For the same variant, the unfolding free energy (pH 3, Glycine 30 mM) was 5.3 kcal/mol, the “ddG of mutation (higher = less stable)” value (pH 7, MOPS 30 mM) was 2.5 kcal/mol and the denaturant m value (pH 7, MOPS 30 mM) was 0.85 kcal/mol/M. The “denaturant midpoint” value (pH 7, MOPS 30 mM) was 4.6 M and the unfolding free energy (pH 7, MOPS 30 mM) was 3.9 kcal/mol.

For D1K D17K E41K, the “ddG of mutation (higher = less stable)” value (pH 3, Glycine 30 mM) was -0.7 kcal/mol, the denaturant m value (pH 3, Glycine 30 mM) was 1.95 kcal/mol/M and the “denaturant midpoint” value (pH 3, Glycine 30 mM) was 1.7 M. The unfolding free energy (pH 3, Glycine 30 mM) was 3.3 kcal/mol, the “ddG of mutation (higher = less stable)” value (pH 7, MOPS 30 mM) was 2.7 kcal/mol and the denaturant m value (pH 7, MOPS 30 mM) was 0.93 kcal/mol/M. The “denaturant midpoint” value (pH 7, MOPS 30 mM) was 4 M and the unfolding free energy (pH 7, MOPS 30 mM) was 3.7 kcal/mol.

Reference: FireProtDB (doi:10.1002/pro.370)
